Measurements taken from a protein production outcome set (Wang et al. 2014).

Assay: label from the status in PepcDB records

With “MKALRAFAIVAASLLLATGAAAQVSLSPPSGPNPFPKPLEPEKPKPRPPAPAKAPATEAKDKAKKPGDKPDAKAAPEGGAATAEDPNVDLVYGAYQRGFYKTAFELAQKRAADNDAKAMTMLGELYANALGVKRDYKKAAEWYSRAADLGDREAMFALAMARMGGRGGPPNREEAAKWLAQAAKLGEPKAAYNLALLYLDGQTFPQDVKRAAELLRMAADAGNPEAQYALATFYKEGTGVTKSIEQSVRLLQAAALAGNVPAQVEYAIALYNGTGTPKNEPAAVALLRKAARANNPIAQNRLAHVLVSGQGAPRDINEAMKWHLIAKTAGKGDLQLDQTLAQMSAEDRAKAEEAARTWIGGGK” the protein production was “failed”.
In the case of “MKARQQKYCDKIANFWCHPTGKIIMSLAGKKIVLGVSGGIAAYKTPELVRRLRDRGADVRVAMTEAAKAFITPLSLQAVSGYPVSDSLLDPAAEAAMGHIELGKWADLVILAPATADLIARVAAGMANDLVSTICLATPAPVAVLPAMNQQMYRAAATQHNLEVLASRGLLIWGPDSGSQACGDIGPGRMLDPLTIVDMAVAHFSPVNDLKHLNIMITAGPTREPLDPVRYISNHSSGKMGFAIAAAAARRGANVTLVSGPVSLPTPPFVKRVDVMTALEMEAAVNASVQQQNIFIGCAAVADYRAATVAPEKIKKQATQGDELTIKMVKNPDIVAGVAALKDHRPYVVGFAAETNNVEEYARQKRIRKNLDLICANDVSQPTQGFNSDNNALHLFWQDGDKVLPLERKELLGQLLLDEIVTRYDEKNRR”, the protein production is reported as “failed”.
With “MKASCSSFTCQSADGKHFLGRTYDEYGDISANKVSIIPRGYEISLTFMGNKENNKQIVKYAIVGMNVDMFDTPFLTEGMNEHGLMISLLFFPHFTQYNSKSNAEYDVNLGLLLPFVLGKCKNIEEAVALLQKINPVDEPESQMELPCHYLISDKTGESIVVEPLADGLKIYRNEMGVLTNSPTYEWHKINLRNYLGISNLAKETQVVNGYKIEELGEGTGYLGIPGDYTPVSRFVRLAFSKNYMPEPQNEIDAVNKMFNIFETVDVPEGVIYTPPLRTPYHEKTLCTSVMCSESLKYYFSTSTNCRICCVDLNKAMNNNSKELINIDIPFEQDILTLN” the protein production was “failed”.
In the case of “MKASELRNYTDEELKNLLEEKKRQLMELRFQLAMGQLKNTSLIKLTKRDIARIKTILRERELGIRR”, the protein production is reported as “not failed”.
In the case of “MKATTSLATSCRRLLLWGVLTLQCLFSTAQKRFTADVEQQAEKILSQMTLDEKLSYIGGINWMYTRPLERFGIPRLKMSDGPQGLGTHGPSTAYPCALMLAATWNEQLATEYGSALGKDCRARGVHVLLGPAVNIYRAPMCGRNFEYMGEDPYLTSRMATGYIKGVQGQGVMATIKHFIANNSDYDRDHISSDIDERTLNEIYFPSFRAAVQEAEVGAVMSSYNLLNGIYTTEHPWLLKDVLRQQWGFKGILMSDWGSTHHCIPAVKGGLDLEMPAGSKMQPEELKYYLRTGDITIETIDEKVRHILQTLLAFGFRETQQPDTHIPLKNPQCAQTALNVASEGLVLLKNTNQILPIRSGKVKTIAVVGKNAQGYVCGGGSGEVHPFQYVSVLDGIRKEAAERDIRVEYLDVYDYLPTIIFTDTERKQKGFRAQYFDNMNLEGTPKVEQTETKINYSWSGGTGLKEMPKEQFSVRWNGTICPQETDEYLFTLGGDDGYRLYIDGKLIADEWHEGAFRNSTYRCMLEAGKKYDLKIEYFQKGGGAAVNFIWKQKNASNNLFVEALNRNDLVVACIGFNSDTEGEGRDRTFELPEDEAQLLQNTLQSKRPVVGIVNAGGNVEMQSWEPSLKGLLWAWYGGQEAGTAIARTLFGELNPSGKLPITFEKRWEDNPTFHSYYDPDGDKHVEYAEGIFVGYRGYDKLKREVQYPFGYGLSYTRFKLSAPTVGTPKTDGSVTVTCKLTNTGRTAGAEVVQLYVSNKDTTVEHPEKELKGFRKVYLEPGETKSIEITVPAEAFSHYDTGSRRFVIDRGSHDILLGFSSRDIKAKMSVGISR”, the protein production is reported as “failed”.
For “MKAVIMAGGFGTRIQPLTSSIPKPMIPLLNRPIMLHIVELLKKYEITDLVMLLYHQPAVIKNFFRDGTDFGVKITYVTPLQDMGTAGAVKCAEKFLDERFLVISGDLLTDFNLQKIIDSHEDNKALATITLTSVKDPLQFGVVITDKEKRITQFLEKPGWGEVISDTINTGIYVFEPEIFAHIPEEENYDFSQDLFPKLLEQQKPLFGYTAKGYWRDIGNTDSYREAHHDIFKGKVNVKIDEAKQDLVGKDLRLGSDVNLDEHVTLEGTVVVGDNSQVFESAHIKDTVIGRNCTIEPGVRLNRCVIWDNVYVKKGAKLNDGVLCSNVRVGHGVVMEEGVIVADDTSIGEEAYIKRDVKIWPRKVIEAGATVTGNLIWGEKWKKSLFEGAMVKGLTNMELTPEFVAKLGCAYGTMLPKGSHIISGRDSYRSCRMLKRSFIGGLLSAGINVRDLTMVPMPVLRYKLRTFGEVGGIYFRQAIDDPASTEIVFLDGDGLDFSSSMGKNVERIFFKENFRRAHHTEPGALSEIPQQVTDFYREGFLHTIGKSPLQKKQFKVVIDFNHSSASQLLPGILTQMGCEVISLNAYVDEERGIQAVAERQQSLAQLSKIVATLEASAGFWLDPGTEGVIVVDETGKVYEGAELLPLMVGLALRSGEKGLFAVPVSAPSAIERMVQERGSAVTRTKSADRAMIEATLSSEVVLAGTMDGRFAFPKFQSAFDGMFAIAKTIELVAKGGLSISRVAAEIPQRVFLQTRVPCVWDMKGGIMRKMSEDSLDKEASFIDGIKVHFGEDWALVLPDQYLPYVHIVAEARDAKTAQKLLDEYKKKVEGWKRELQ”, the protein production was “failed”.
For “MKAVKSERERGSRRRHRDGDVVLPAGVVVKQERLSPEVAPPAHRRPDHSGGSPSPPTSEPARSGHRGNRARGVSRSPPKKKNKASGRRSKSPRSKRNRSPHHSTVKVKQEREDHPRRGREDRQHREPSEQEHRRARNSDRDRHRGHSHQRRTSNERPGSGQGQGRDRDTQNLQAQEEEREFYNARRREHRQRNDVGGGGSESQELVPRPGGNNKEKEVPAKEKPSFELSGALLEDTNTFRGVVIKYSEPPEARIPKKRWRLYPFKNDEVLPVMYIHRQSAYLLGRHRRIADIPIDHPSCSKQHAVFQYRLVEYTRADGTVGRRVKPYIIDLGSGNGTFLNNKRIEPQRYYELKEKDVLKFGFSSREYVLLHESSDTSEIDRKDDEDEEEEEEVSDS”, the protein production was “failed”.
With “MKAWVLKRLGGPLELVDLPEPEAEEGEVVLRVEAVGLNFADHLMRLGAYLTRLHPPFIPGMEVVGVVEGRRYAALVPQGGLAERVAVPKGALLPLPEGLSPEEAAAFPVSFLTAYLALKRAQARPGEKVLVQAAAGALGTAAVQVARAMGLRVLAAASRPEKLALPLALGAEEAATYAEVPERAKAWGGLDLVLEVRGKEVEESLGLLAHGGRLVYIGAAEGEVAPIPPLRLMRRNLAVLGFWLTPLLREGALVEEALGFLLPRLGRELRPVVGPVFPFAEAEAAFRALLDRGHTGKVVVRL” the protein production was “not failed”.
In the case of “MKCHRVNELIELLHPAWQKEPDLNLVQFLQNLAQEAGFEGQLNELTDDILIYHLKMRDSDKEQVIPGLKKDYEEDFKTALLRARGVIKDLEHHHHHH”, the protein production is reported as “not failed”.
In the case of “MKCKRLNEVIELLQPAWQKEPDFNLLQFLQKLAKESGFDGELADLTDDILIYHLKMRDSAKDAVIPGLQKDYEEDFKTALLRARGVIKELEHHHHHH”, the protein production is reported as “not failed”.
In the case of “MKCNDKLAPFEVFDHVVNKKLSFRHVTMDDVDMLHSWMHEEHVIPYWKLNIPLVDYKKHLQTFLNDDHQTLMVGAINGVPMSYWESYWVKEDIIANYYPFEEHDQGIHLLIGPQEYLGQGLIYPLLLAIMQQKFQEPDTNTIVAEPDRRNKKMIHVFKKCGFQPVKEVELPDKIGLLMKCEQNVFEKRWSDWKMNKF”, the protein production is reported as “not failed”.
For “MKDVTIYHNPRCSKSRETLALVEQQGITPQVVLYLETPPSVDKLKELLQQLGFSDARQLMRTKEDLYKTLNLDDRGLTQDQLLQAMADNPKLIERPIVVTQGKARIGRPPEQVLEILK”, the protein production was “not failed”.
For “MKDYQKILVVVDPTTENQVALARAVTLASKSNAHVTVFLSIFDFSYEMTSILSSQEREAMRQGVIDQRVAWIQDLLAPYNHLGLNIDTQVIWHNRPFESIINHAIAGQYDLIVKGTHAHDKLKAVIFTPTDWHLMRKAPVPVLMVKDHDWPETGKILCAVNVATEDTDHQMLNGKIIEHAKDLAGKFAAEVHLVNGFPGTPVNLAIELPDFDAQTYNDTIRLQHEQRVQYLADAYGIDKQNCHVKEGLPEDVIPELAEQLDAELVILGTVGRTGFSAALIGNTAEHVIDSINCDLLAIKPDGYKSPLEEA”, the protein production was “not failed”.
With “MKEDPRIIKTLSKLQKAFVMLLKTYDAGDINVRQISDEAGVTRGAFYSHFSDKKEFVNFTINELVGSLFNSSLKDSVGFVDEVNHKNAHGTNVLSVSNFFDKVAADYQTYTIVLDTEKLPQFTEVLKERLNSEIKTFAEYYGKKVKHDGFPIEVLSSYYVNGLIGMIRMWLDEGMVYTSHYMANAAKKILGTKIQIDSQNIDLSDFFVDLEHHHHHH” the protein production was “not failed”.
In the case of “MKEDWKSTIQKRIVERNLNQSKKYESIMKSYNSLVEEKNNLLAIIASLTSENMYLLNNRKLNHSFESTMMTETNISRNEDIFLSNETKKGHNNNNNQNDYNNDNSLNYSRTNIITMKSPDSLSQNTITKKEFLEVIKEKGKNEELILLLKNSVNEKEKMLHILNKENNNLNNVICKREEELYEKKKDIFKLEELLNKKETQIKLYENNNKSLKTKIQLHDRKNQKYFRQYNILRFTYFKLLKQVGEMKVYNNNINQNYFSLRKEMLQKKEENEKLLNYLIHCKTSYKKELKKLYQEITNKQKKYILFKNNQFYVNLYLRKF”, the protein production is reported as “failed”.
In the case of “MKEFFKMFFASILGVITAGIILFCIFLFIFFGIVAGIASKATGGTIPKIEANSILHIDNSSFPEIVSANPWSMLTGKDESVSLSQAVEAIGQAKNNPNITGIFLDLDNLSVGMASAEELRRALQDFKMSGKFVVSYADRYTQKGYYLSSIADKLYLNPKGMLGLIGIATQTMFYKDALDKFGVKMEIFKVGTYKAAVEPFMLNRMSDANREQITTYINGLWDKITSDIAESRKTAMDSVKMFADKGEMFGLAEKAVEMKLVDELAYRTDVEKELKKMSQRGEKDELRFVSLSQVLANGPMNKTKGSRIAVLFAEGEITEEIIKKPFDTDGSSITQELAKEIKAAADDDDIKAVVLRVNSPGGSAFTSEQIWKQVADLKAKKPIVVSMGDVAASGGYYIACAANSIVAEHTTLTGSIGIFGMFPNFAGVAKKIGVNMDVVQTSKYADLGNTFAPMTVEDRALIQRYIEQGYDLFLTRVSEGRNRTKAQIDSIAQGRVWLGDKALALGLVDELGGLDTAIKRAAKLAQLGGNYSIEYGKTKRNFFEELLSSSAADMKSAILSTILSDPEIEVLRELRSMPPRPSGIQARLPYYFMPY”, the protein production is reported as “failed”.
For “MKEGKHFVLVHGACHGGWSWYKLKPLLEAAGHKVTALDLAASGTDLRKIEELRTLYDYTLPLMELMESLSADEKVILVGHSLGGMNLGLAMEKYPQKIYAAVFLAAFMPDSVHNSSFVLEQYNERTPAENWLDTQFLPYGSPEEPLTSMFFGPKFLAHKLYQLCSPEDLALASSLVRPSSLFMEDLSKAKYFTDERFGSVKRVYIVCTEDKGIPEEFQRWQIDNIGVTEAIEIKGADHMAMLCEPQKLCASLLEIAHKYNLEHHHHHH”, the protein production was “not failed”.
In the case of “MKEIALLAIARYGDLIQTTPLVRALRRAHPGARITAIVEDRFCGILPLLPGIDRTIVLNKQDIAWDIATGDSPLVPYLKMDEFVRKLEEGSYDLLVNITCSRLSAFFASCVTSRRRTGISADEAGERNIVTLEHHHHHH”, the protein production is reported as “failed”.
In the case of “MKEIKEITKKDVQDAEIYLYGSVVEGDYSIGLSDIDVAIVSDVFEDRNRKLEFFGKITKKFFDSPFEFHILTKKEWKMSKRFIRKYRRLDLIT”, the protein production is reported as “not failed”.
